Positions count from the first letter of the chain named.
B1: CL24 (antibody, human IgG1, V domains shown)
VH: EVQLVETGGGLIQPGGSLRLSCAASGLNVSRHYLSWVRQAPGKGLEWVAVIYSGGGIEYVDSVKGRFTISRDNANNTLYLQMRSLRTEDSAVYYCARAIPRPHGSDIWGQGTMVTVSS
notes: Human heavy-chain-only antibody (HCAb): two heavy chains, no light chain
B2: CL11 (antibody, human IgG1, V domains shown)
VH: EVQLEETGGDLIQPGGSLRLSCTASGFNVSRIYMSWVRQAPGKGLEWVSVIYSGGSIYYADSVRGRFTISRDSSTNTVFLQMNSLRAEDSAVYYCARAVPSAPSSFDIWGQGTMVTVSS
notes: Human heavy-chain-only antibody (HCAb): two heavy chains, no light chain; also called clone 11
B3: CL11-dPTM (antibody, human IgG1, V domains shown)
VH: B2 VH with N28T
notes: HCAb variant with PTM removal
B4: CL30-dPTM (antibody, human IgG1, V domains shown)
VH: B2 VH with N28T, F79Y, S101H, S105N, I108K, M114R
notes: HCAb variant with PTM removal
B5: CL30 (antibody, human IgG1, V domains shown)
VH: B2 VH with F79Y, S101H, S105N, I108K, M114R
notes: Human heavy-chain-only antibody (HCAb): two heavy chains, no light chain; also called clone 30
B6: CL20 (antibody, human IgG1, V domains shown)
VH: EVQLVESGGGLVQPGGSLRLSCAASGFTFSNYWMHWVRQAPGKGLVWVSRINSDGSNTTYADSVKGRFTISRDNAKNTLYLQMNSLRAEDTAVYYCARWFGEHYYGMDVWGQGTTVTVSS
notes: as for B1
B7: CL22-dPTM′ (antibody, human IgG1, V domains shown)
VH: EVQLVESGGGLIQPGGSLRLSCAASGFTVRNNYMSWVRQAPGKGLEWVSVIYSGGSITYADSVKGRFTISRDNSKNTLYLQMNSLRAEDTAVYYCARAVPHAPSAFDIWGQGTMVTVSS
notes: HCAb variant with PTM removal
B8: CL30-dPTM′ (antibody, human IgG1, V domains shown)
VH: B7 VH with R30S, N31R, N32I, T58Y, N73S, L78V, A105N, I108K, M114L
notes: HCAb variant with PTM removal

Experiments:
[1] = target: T1, cyno CTLA-4 expressed on 293 cells (293-cynoCTLA-4 cells) (cyno, UniProt G7PL88 36-223); test: flow cytometry (MFI) on 293 cells expressing cynomolgus CTLA-4, Alexa 488 anti-human (H+L) detection
T1 construct: also called cynomolgus CTLA-4
T1 sequence: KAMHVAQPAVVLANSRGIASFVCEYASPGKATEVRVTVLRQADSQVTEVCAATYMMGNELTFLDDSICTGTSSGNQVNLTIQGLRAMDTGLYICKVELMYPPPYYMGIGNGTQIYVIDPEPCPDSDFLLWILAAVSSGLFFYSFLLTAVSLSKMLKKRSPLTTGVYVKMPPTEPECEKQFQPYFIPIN
Protocol: (§1) The culture medium was aspirated, and the cells were washed twice with HBSS (Hanks Balanced Salt Solution, Invitrogen). The cells were treated with enzyme-free cell dissociation solution (Versene solution, Invitrogen) and collected. The cells were then washed twice with HBSS, cell counts were determined, and cells were resuspended with HBSS at 2×10⁶ cells/mL. BSA was added to the cell suspension to a final concentration of 1%, and the cells were blocked for 30 minutes on ice and then washed twice with HBSS. The cells were collected after centrifugation and resuspended in FACS buffer (HBSS+1% BSA, v/v) at 2×10⁶ cells/mL. 100 μL of the cell suspension were then added to each well of a 96-well plate. 100 μL of purified anti-CTLA-4 antibodies from Example 2 or control antibodies were added to each well of the 96-well plate and incubated for 1 hour on ice, wherein the heavy chain and light chain of the Ipilimumab analogue had amino acid sequences of SEQ ID NO.: 199 and SEQ ID NO.: 200, respectively. Cells were washed twice with FACS buffer, and 100 μL of Alexa 488-labeled anti-human (H+L) antibody (Invitrogen) were added to the 96-well plate and incubated for 1 hour on ice. The samples were washed three times with FACS buffer, and 100 μL of fixation buffer (containing 4% paraformaldehyde, v/v) were added to each well and incubated for 10 minutes. The cells were then washed twice with FACS buffer and resuspended in 100 μL of FACS buffer.

[2] = target: T2, Recombinant mouse CTLA4-his protein (CT4-M52H5, Acro Bio) (mouse, UniProt P09793 36-161); test: ELISA on coated recombinant mouse CTLA4-his, HRP anti-human IgG (H+L), OD450
T2 construct: Bought protein; also called murine CTLA-4; not shown: his tag
Protocol: Recombinant human or mouse CTLA4-his protein (CT4-H5229 for human protein, CT4-M52H5 for mouse protein, Acro Bio) was diluted in PBS to a concentration of 2 μg/mL, and 100 μL of the diluted CTLA-4-his protein was added per well to ELISA microplates, which were incubated overnight at 4° C. to coat the plates with the recombinant proteins. The plates were then blocked with ELISA blocking solution (containing 2% BSA, 0.05% (v/v) Tween-20, pH7.4 PBS buffer, w/v) at 37° C. for two hours and then incubated with anti-CTLA-4 antibodies with various concentrations for 1 hour at 37° C. The plates were washed and incubated with horseradish peroxidase (HRP) conjugated goat anti-human IgG (H+L) antibody (A18805, Life technologies) at 37° C. for one hour. 100 μL of tetramethylbenzidine (TMB) were added, and the plates were incubated at room temperature for 15 minutes. 50 μL of 1N HCl were added to terminate the reaction, and the OD450 nm was determined by an ELISA plate reader.

[3] = target: T3, human CTLA-4 expressed on cells (293-hCTLA-4 cells; CTLA-4-expressing CHO-K1 cells) (human, UniProt P16410 36-223); test: flow cytometry (MFI) on 293 cells expressing human CTLA-4, Alexa 488 anti-human (H+L) detection
T3 construct: also called CD152; cell-expressed CTLA-4
T3 sequence: T1 sequence with N14S, M106L
Protocol: as §1

[4] = target: T3, human CTLA-4 expressed on cells …; test: cell-based blocking assay, flow cytometry: % blocking of biotinylated B7.1 ECD-Fc binding to 293-hCTLA-4 cells
Protocol: Cell-Based Receptor-Ligand Binding assay was performed to determine the ability of the anti-CTLA-4 antibodies to block the binding of CTLA-4 to its ligands B7.1. Recombinant B7.1^ECD-Fc protein (B71-H5259, Acro Bio) was biotinylated using EZ-LINK NHS-PEG12-Biotin (Thermo Scientific#21312) according to the manufacturer's instruction. Biotinylated B7.1^ECD-Fc protein was concentrated and free label removed by using Amicon centrifugal filter (10 kDa cut off). The extracellular domain of B7.1 corresponded to amino acids Val35-Asn242 of Uniprot database protein P33681.
The culture medium was aspirated, and the cells were washed twice with PBS. The cells were treated with enzyme-free cell dissociation solution (Versene solution, Invitrogen) and collected. Dissociation solution was neutralized by the addition of 8 mL of culture medium, and cell counts were determined. Cells were centrifuged at 300 g for 5 minutes and resuspended in blocking buffer (containing 2% BSA, pH 7.4 PBS buffer, w/v) at 1×10⁶ cells/mL. The cells were blocked for 15 minutes at 37° C. Meanwhile, the wells of 96-well round-bottom plates were blocked with 200 μL of blocking buffer for 1 hour at 37° C. The blocking buffer was discarded, and 200 μL of cells were dispensed to each well of the 96-well plates (2×10⁵ cells/well). The plates were centrifuged at 500 g for 5 minutes, and the supernatants were discarded. The cells were resuspended in 100 μL of anti-CTLA-4 antibodies prepared in blocking buffer with varying concentrations. 100 μL of biotinylated B7.1 ECD-Fc (60 μg/mL in blocking buffer) were added to each well of 96-well plate and mixed by shaking gently. The plates were incubated at 4° C. for 90 minutes and washed twice with 200 μL blocking buffer. The blocking buffer was discarded, and the cells were resuspended in 100 μL of streptavidin-Alexa 488 solution (Invitrogen, 1:500 in blocking buffer) and incubated at 4° C. for 1 hour. The plates were washed three times with blocking buffer and added with 200 μL of blocking buffer.
The mean fluorescence intensity (MFI) was determined using FACS Calibur (BD).

[5] = target: T3, human CTLA-4 expressed on cells …; test: flow cytometry on 293F-hCTLA-4 cells
[6] = target: T4, Recombinant human CTLA-4-his protein (CT4-H5229, Acro Bio) (human, UniProt P16410 36-161); test: ELISA of 293 supernatants on coated human CTLA4-his
T4 construct: extracellular domain; Bought protein; also called Human CTLA-4^ECD-his; not shown: his tag
T4 sequence (looked up): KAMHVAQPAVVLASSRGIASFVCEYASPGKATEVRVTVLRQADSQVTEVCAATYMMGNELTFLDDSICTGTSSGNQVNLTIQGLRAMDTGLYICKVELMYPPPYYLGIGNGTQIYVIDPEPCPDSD

Binder	EC50 (read off the curve) [1] [nM]	EC50 (read off the curve) [3] [nM]	binding result [5]	other results
B1	~1	~2		binding result [2]: no binding (tested: 533.3 nM)
B2	~1	~2		binding result [2]: no binding (tested: 325.5 nM); IC50 (read off the curve) [4]: 10 to 20 nM
B3			binds	
B4			binds	
B5	~1	~2		IC50 (read off the curve) [4]: ~10 nM
B6				binding result [6]: binds
B7			binds	
B8			binds	

Source: patent publication US20190202914A1 (HARBOUR BIOMED SHANGHAI, published 2019)
